Measured values taken from publication PMC3678999, “A Structural Basis for IκB Kinase 2 Activation Via Oligomerization-Dependent Trans Auto-Phosphorylation” (PLoS Biology, 2013).
Values joined by “and” are separate entries in the source; they are usually repeats but may differ in a detail not shown here. Equal values may be shown once.

How the values were obtained:
[1] = target: the molecule itself; assay: crystal structure; hexagonal crystal form, data to 7 Å; molecular replacement with the hIKK2EE(11–669) model and rigid body refinement, called a probable solution; protein mixed with inhibitor MLN120B
[2] = target: T1, His-tagged full-length human IKK2 (human), O14920; assay: AUC; sedimentation velocity, ~0.5 mg/ml, 30,000 rpm, 20°C, 15 h; Sedfit; conditions: remark: other sources report otherwise
T1 chain: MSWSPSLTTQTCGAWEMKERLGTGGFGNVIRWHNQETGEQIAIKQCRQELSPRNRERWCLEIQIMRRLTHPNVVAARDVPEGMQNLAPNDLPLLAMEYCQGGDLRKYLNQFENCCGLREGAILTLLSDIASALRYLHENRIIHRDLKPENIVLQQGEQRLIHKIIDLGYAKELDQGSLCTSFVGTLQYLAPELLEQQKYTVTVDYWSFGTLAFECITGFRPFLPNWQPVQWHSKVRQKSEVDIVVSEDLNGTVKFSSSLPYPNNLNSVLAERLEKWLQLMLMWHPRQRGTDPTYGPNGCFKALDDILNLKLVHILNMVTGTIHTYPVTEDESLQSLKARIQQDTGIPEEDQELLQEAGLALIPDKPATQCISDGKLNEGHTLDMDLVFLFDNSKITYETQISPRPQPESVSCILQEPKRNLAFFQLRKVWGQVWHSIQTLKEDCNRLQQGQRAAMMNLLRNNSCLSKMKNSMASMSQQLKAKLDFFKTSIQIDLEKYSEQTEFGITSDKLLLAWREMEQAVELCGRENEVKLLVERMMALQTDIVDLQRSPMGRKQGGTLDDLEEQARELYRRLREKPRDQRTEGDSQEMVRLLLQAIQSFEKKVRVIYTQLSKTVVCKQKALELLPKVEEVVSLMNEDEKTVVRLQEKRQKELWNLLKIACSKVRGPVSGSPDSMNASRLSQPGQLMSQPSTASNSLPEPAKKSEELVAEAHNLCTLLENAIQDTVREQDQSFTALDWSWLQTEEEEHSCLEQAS

[3] = target: T1, His-tagged full-length human IKK2 …; assay: SEC-MALS; SEC-MALLS; protein pretreated with 1 mM ATP, concentrated as for crystallization; Zenix SEC-300 column, 20 mM Tris-Cl pH 8, 150 mM NaCl, 5% glycerol; conditions: remark: other sources report otherwise
[4] = target: the molecule itself; assay: crystal structure; tetragonal crystal form, space group P4(1)22, six protomers in the asymmetric unit; protein mixed with inhibitor MLN120B 1:2; sodium malonate pH 6.5, 18°C

B1: human IKK2 (amino acids 1–700), constitutively active S177E/S181E (domain or fragment, UniProt O14920 1-700, looked up)
chain: MSWSPSLTTQTCGAWEMKERLGTGGFGNVIRWHNQETGEQIAIKQCRQELSPRNRERWCLEIQIMRRLTHPNVVAARDVPEGMQNLAPNDLPLLAMEYCQGGDLRKYLNQFENCCGLREGAILTLLSDIASALRYLHENRIIHRDLKPENIVLQQGEQRLIHKIIDLGYAKELDQGELCTEFVGTLQYLAPELLEQQKYTVTVDYWSFGTLAFECITGFRPFLPNWQPVQWHSKVRQKSEVDIVVSEDLNGTVKFSSSLPYPNNLNSVLAERLEKWLQLMLMWHPRQRGTDPTYGPNGCFKALDDILNLKLVHILNMVTGTIHTYPVTEDESLQSLKARIQQDTGIPEEDQELLQEAGLALIPDKPATQCISDGKLNEGHTLDMDLVFLFDNSKITYETQISPRPQPESVSCILQEPKRNLAFFQLRKVWGQVWHSIQTLKEDCNRLQQGQRAAMMNLLRNNSCLSKMKNSMASMSQQLKAKLDFFKTSIQIDLEKYSEQTEFGITSDKLLLAWREMEQAVELCGRENEVKLLVERMMALQTDIVDLQRSPMGRKQGGTLDDLEEQARELYRRLREKPRDQRTEGDSQEMVRLLLQAIQSFEKKVRVIYTQLSKTVVCKQKALELLPKVEEVVSLMNEDEKTVVRLQEKRQKELWNLLKIACSKVRGPVSGSPDSMNASRLSQPGQLMSQPSTASNSLPE
notes: human IκB kinase 2 (IKK2/IKKβ), amino acids 1–700 (amino acid 701 mutated to a stop codon), with S177E/S181E; Hexagonal crystal form, data to 7 Å; no PDB entry is named for it; also called hIKK2EE 1–700; hIKK2EE(1–700); source: Sf9 (baculovirus), purified (Ni-NTA, TEV, Superdex200); not shown: His6, N-terminal, cleaved
B1 was tested. Which “stoichiometry N” value [1] did it give?
The value was 2.

B2: His-tagged full-length human IKK2, O14920 1-756 (enzyme)
chain: MSWSPSLTTQTCGAWEMKERLGTGGFGNVIRWHNQETGEQIAIKQCRQELSPRNRERWCLEIQIMRRLTHPNVVAARDVPEGMQNLAPNDLPLLAMEYCQGGDLRKYLNQFENCCGLREGAILTLLSDIASALRYLHENRIIHRDLKPENIVLQQGEQRLIHKIIDLGYAKELDQGSLCTSFVGTLQYLAPELLEQQKYTVTVDYWSFGTLAFECITGFRPFLPNWQPVQWHSKVRQKSEVDIVVSEDLNGTVKFSSSLPYPNNLNSVLAERLEKWLQLMLMWHPRQRGTDPTYGPNGCFKALDDILNLKLVHILNMVTGTIHTYPVTEDESLQSLKARIQQDTGIPEEDQELLQEAGLALIPDKPATQCISDGKLNEGHTLDMDLVFLFDNSKITYETQISPRPQPESVSCILQEPKRNLAFFQLRKVWGQVWHSIQTLKEDCNRLQQGQRAAMMNLLRNNSCLSKMKNSMASMSQQLKAKLDFFKTSIQIDLEKYSEQTEFGITSDKLLLAWREMEQAVELCGRENEVKLLVERMMALQTDIVDLQRSPMGRKQGGTLDDLEEQARELYRRLREKPRDQRTEGDSQEMVRLLLQAIQSFEKKVRVIYTQLSKTVVCKQKALELLPKVEEVVSLMNEDEKTVVRLQEKRQKELWNLLKIACSKVRGPVSGSPDSMNASRLSQPGQLMSQPSTASNSLPEPAKKSEELVAEAHNLCTLLENAIQDTVREQDQSFTALDWSWLQTEEEEHSCLEQAS
With B2 as the binder, how does the stoichiometry N [2] read?
Its stoichiometry N is 4 and 6 and 8.

What about the stoichiometry N [3] of the same binder?
The stoichiometry N was 4.

B3: human IKK2 (amino acids 11–669), constitutively active S177E/S181E (domain or fragment, UniProt O14920 11-669, looked up)
chain: TCGAWEMKERLGTGGFGNVIRWHNQETGEQIAIKQCRQELSPRNRERWCLEIQIMRRLTHPNVVAARDVPEGMQNLAPNDLPLLAMEYCQGGDLRKYLNQFENCCGLREGAILTLLSDIASALRYLHENRIIHRDLKPENIVLQQGEQRLIHKIIDLGYAKELDQGELCTEFVGTLQYLAPELLEQQKYTVTVDYWSFGTLAFECITGFRPFLPNWQPVQWHSKVRQKSEVDIVVSEDLNGTVKFSSSLPYPNNLNSVLAERLEKWLQLMLMWHPRQRGTDPTYGPNGCFKALDDILNLKLVHILNMVTGTIHTYPVTEDESLQSLKARIQQDTGIPEEDQELLQEAGLALIPDKPATQCISDGKLNEGHTLDMDLVFLFDNSKITYETQISPRPQPESVSCILQEPKRNLAFFQLRKVWGQVWHSIQTLKEDCNRLQQGQRAAMMNLLRNNSCLSKMKNSMASMSQQLKAKLDFFKTSIQIDLEKYSEQTEFGITSDKLLLAWREMEQAVELCGRENEVKLLVERMMALQTDIVDLQRSPMGRKQGGTLDDLEEQARELYRRLREKPRDQRTEGDSQEMVRLLLQAIQSFEKKVRVIYTQLSKTVVCKQKALELLPKVEEVVSLMNEDEKTVVRLQEKRQKELWNLLKIACSKVRGPV
notes: human IκB kinase 2 (IKK2/IKKβ), amino acids 11–669, with S177E/S181E; Cloned in pFastBacHTb (N-terminal hexa-histidine tag, TEV site); Incubated with ATP/MgCl2 before the size exclusion column; also called IKK2(11–669)EE; hIKK2EE(11–669); source: Sf9 (baculovirus), purified (Ni-NTA, TEV, Superdex200); not shown: His6, N-terminal, cleaved
How did the “stoichiometry N” value [4] turn out when B3 was run?
The value was 2 and 4.
